Where a chain is given by its changes, count along the chain named. In names and notes the source's numbering stands.
T1: GST-Kapβ2 (UniProt Q92973-2 1-890)
T1 sequence (looked up): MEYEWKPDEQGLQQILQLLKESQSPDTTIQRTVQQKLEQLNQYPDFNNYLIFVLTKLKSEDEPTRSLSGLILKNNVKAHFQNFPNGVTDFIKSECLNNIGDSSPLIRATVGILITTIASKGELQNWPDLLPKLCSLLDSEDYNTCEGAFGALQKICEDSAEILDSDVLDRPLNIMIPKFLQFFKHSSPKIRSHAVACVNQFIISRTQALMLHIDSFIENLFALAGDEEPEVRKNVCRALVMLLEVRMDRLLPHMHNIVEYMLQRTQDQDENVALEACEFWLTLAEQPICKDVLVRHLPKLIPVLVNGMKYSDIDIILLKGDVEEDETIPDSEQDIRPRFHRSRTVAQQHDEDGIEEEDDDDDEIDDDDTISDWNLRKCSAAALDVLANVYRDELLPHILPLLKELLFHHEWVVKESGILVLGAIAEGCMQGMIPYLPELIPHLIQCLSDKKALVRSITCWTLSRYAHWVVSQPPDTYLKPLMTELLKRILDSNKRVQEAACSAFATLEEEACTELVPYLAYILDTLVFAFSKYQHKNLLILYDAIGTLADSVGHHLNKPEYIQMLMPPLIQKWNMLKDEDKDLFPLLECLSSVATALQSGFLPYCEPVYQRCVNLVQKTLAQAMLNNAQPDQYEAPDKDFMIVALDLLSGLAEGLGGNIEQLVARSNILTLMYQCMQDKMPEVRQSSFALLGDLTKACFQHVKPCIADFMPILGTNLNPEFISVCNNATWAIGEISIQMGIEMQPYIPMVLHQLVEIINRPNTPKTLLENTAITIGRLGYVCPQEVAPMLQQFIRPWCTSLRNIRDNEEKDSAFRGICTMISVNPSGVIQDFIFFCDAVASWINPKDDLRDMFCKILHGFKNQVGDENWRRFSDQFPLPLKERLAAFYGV

T2: Karyopherin-β2 (Kapβ2), wild type, GST tag removed (UniProt Q92973-2 1-890)
T2 sequence (looked up): T1 sequence (looked up)

T3: Kapβ2(W373A), GST tag removed (UniProt Q92973-2 1-890, W373A)
T3 sequence (looked up): T1 sequence (looked up) with W373A

B1: MBP-HNRNPH2(103-225) R212K (domain or fragment, UniProt P55795 103-225, looked up)
chain: NSPDTANDGFVRLRGLPFGCSKEEIVQFFSGLEIVPNGMTLPVDFQGRSTGEAFVQFASQEIAEKALKKHKERIGHRYIEIFKSSRAEVRTHYDPPRKLMAMQRPGPYDKPGAGRGYNSIGRG
B2: MBP-HNRNPH2(103-225) P213A (domain or fragment, UniProt P55795 103-225, looked up)
chain: B1 chain with K110R, P111A
B3: HNRNPH2(103-225) as in the cryo-EM sample (domain or fragment, UniProt P55795 103-225, looked up)
chain: B1 chain with K110R
modifications: mildly cross-linked to Kapβ2 with 0.025% glutaraldehyde
B4: MBP-HNRNPH2(103-225) WT (domain or fragment, UniProt P55795 103-225, looked up)
chain: B1 chain with K110R
B5: MBP-HNRNPH2(103-225) R206Q (domain or fragment, UniProt P55795 103-225, looked up)
chain: B1 chain with R104Q, K110R
B6: MBP-HNRNPH2(103-225) R212A (domain or fragment, UniProt P55795 103-225, looked up)
chain: B1 chain with K110A
B7: MBP-HNRNPH2(103-225) P209L (domain or fragment, UniProt P55795 103-225, looked up)
chain: B1 chain with P107L, K110R
B8: MBP-HNRNPH2(103-225) R206W (domain or fragment, UniProt P55795 103-225, looked up)
chain: B1 chain with R104W, K110R

Each binder was assayed against T1, GST-Kapβ2 (assay: pull-down).

| Binder | binding result |
| --- | --- |
| B1 | binds |
| B2 | binds |

These binders were tested against T2, Karyopherin-β2 (Kapβ2), wild type, GST … (assay: cryo-EM structure).

| Binder | binding result |
| --- | --- |
| B3 | binds |

The binders below were run against T2, Karyopherin-β2 (Kapβ2), wild type, GST … (assay: ITC).

| Binder | Kd [µM] |
| --- | --- |
| EVRTHYDPPRKLMAMQRPGPYDRPGAGRGYNSIGRG (domain or fragment, UniProt P55795 190-225, looked up) [MBP-HNRNPH2 PY-NLS (190-225)] | 0.04 |
| B4 | 0.05 |
| B5 | 3.6 |
| B6 | 3.2 |
| B7 | 16.3 |
| B8 | 5.2 |
| ERPAQNEKRKEKNIKRGGNRFEPYANPTKR (domain or fragment, UniProt P52272 41-70, looked up) [MBP-HNRNPM PY-NLS (41-70)] | 0.009 |

Each binder was assayed against T3, Kapβ2(W373A), GST tag removed (assay: ITC).

| Binder | Kd [µM] |
| --- | --- |
| B4 | 6.1 |
| ERPAQNEKRKEKNIKRGGNRFEPYANPTKR (domain or fragment, UniProt P52272 41-70, looked up) [MBP-HNRNPM PY-NLS (41-70)] | 0.0045 |

Source: PMC10524338 (Structure (London, England : 1993), 2023)
